Reference: patent US20200199236A1 (BIO THERA SOLUTIONS, published 2020)

T1: CD20 (UniProt P11836 1-297, limits assumed)
T1 construct: whole, on cells; Endogenous CD20 on Raji and Wil2-s cell lines; also called CD20 on Raji cells; CD20 on Wil2-s cells
T1 sequence (looked up): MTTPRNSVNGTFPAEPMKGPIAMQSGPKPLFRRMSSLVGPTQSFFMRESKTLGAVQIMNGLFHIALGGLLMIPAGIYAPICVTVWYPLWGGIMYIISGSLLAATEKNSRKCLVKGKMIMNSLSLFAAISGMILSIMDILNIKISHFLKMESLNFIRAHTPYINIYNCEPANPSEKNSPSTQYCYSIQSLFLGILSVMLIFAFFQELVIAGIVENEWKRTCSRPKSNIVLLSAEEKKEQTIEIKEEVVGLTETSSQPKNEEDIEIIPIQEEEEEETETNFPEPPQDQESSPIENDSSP

B1: Rituximab (antibody, V domains shown)
VH: QVQLQQPGAELVKPGASVKMSCKASGYTFTSYNMHWVKQTPGRGLEWIGAIYPGNGDTSYNQKFKGKATLTADKSSSTAYMQLSSLTSEDSAVYYCARSTYYGGDWYFNVWGAGTTVTVSA
VL: QIVLSQSPAILSASPGEKVTMTCRASSSVSYIHWFQQKPGSSPKPWIYATSNLASGVPVRFSGSGSGTSYSLTISRVEAEDAATYYCQQWTSNPPTFGGGTKLEIK
B2: BAT4306F (antibody, human IgG1)
light: DIVMTQTPLSLPVTPGEPASISCRSSKSLLHSNGITYLYWYLQKPGQSPQLLIYQMSNLVSGVPDRFSGSGSGTDFTLKISRVEAEDVGVYYCAQNLELPYTFGGGTKVEIKR
heavy: not shown
modifications: N-linked oligosaccharide without fucose (produced in FUT8 knockout CHO-2G8 / CHO-BAT-KF cells)
notes: Humanized anti-CD20 IgG with B-HH6 heavy and B-KV1 light variable regions from B-Ly1 (WO2005044859); Non-fucosylated glycoform; also called carbohydrate chain modified BAT4306F

Columns and labels:
CD20 [1] = target: T1, CD20; assay: flow cytometry; Mean Kd over Raji and Wil2-s cells
CD20 [2] = target: T1, CD20; assay: flow cytometry on Raji cells; Kd=[Ab]*{Fmax/(F-Fback)-1}
CD20 [3] = target: T1, CD20; assay: flow cytometry on Wil2-s cells; Kd=[Ab]*{Fmax/(F-Fback)-1}
CD20 [4] = target: T1, CD20; assay: flow cytometry, antibody titrated on Raji cells, FITC anti-human IgG1 Fab secondary
CD20 [5] = target: T1, CD20; assay: flow cytometry, antibody titrated on Wil2-s cells, FITC anti-human IgG1 Fab secondary
FcγRIIIa 158V = target: T2, FcγRIIIa 158V (UniProt P08637 17-208, biotin-labeled (site not stated)); assay: biosensor with SA sensor, biotin-FcγRIIIa 158V loaded, antibody in solution (7 concentrations, 2x gradient from 500 nM)
T2 construct: also called biotin-labeled FcγRIIIa 158V
Procedure: The sensor was pre-wetted in PBS for 10 min. […] AB solution, […], regeneration buffer, drug diluent and neutralization buffer were sequentially added to the corresponding columns of a 96-well plate. The SA sensor operates as follows: Baseline: detected the baseline in AB, 150 s; Association: combined in the gradient concentration of drug diluent sample and blank (AB) for 90 s; Dissociation: dissociated in AB for 120 s; Regeneration: regenerated in NaOH (pH 10.5) for 5 s; Neutralization: neutralized in AB for 5 s. The regeneration and neutralization cycles were carried out for 3 times. The collected data were analyzed by the instrument data analysis software Acquisition 8.2. Taking Baseline acquisition signal as a baseline and subtracting the reference signal (double deduction of sample blank and sensor blank), the data were subject to group analysis and fitted.

T2 sequence (P08637 17-208 F176V): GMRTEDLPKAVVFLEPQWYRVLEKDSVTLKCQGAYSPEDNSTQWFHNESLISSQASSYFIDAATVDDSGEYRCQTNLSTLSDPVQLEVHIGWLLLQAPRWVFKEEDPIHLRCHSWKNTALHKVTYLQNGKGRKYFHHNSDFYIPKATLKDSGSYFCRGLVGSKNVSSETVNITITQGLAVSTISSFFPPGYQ

Binder	Kd (CD20 [1])	Kd (CD20 [2])	Kd (CD20 [3])	IC50 (CD20 [4])	IC50 (CD20 [5])	Kd (FcγRIIIa 158V)
B1	14.3 nM	12.7 nM	16 nM	13.3 nM	16.8 nM	–
B2	–	–	–	–	–	25.7 nM
